Laboratory results from the DeepSol protein solubility set.

Assay: soluble on expression in E. coli; label from the status in PepcDB or PDB records

In the case of “MGSDKIHHHHHHMIDVLVIGGGNAALCAALTAREAGASVTLLEAAPREWRGGNSQHTRNLRCMHDEPQDVLVDAYPEEEFWQDLLKVTGGITDEHLARLVIRHSSSCRDWMRRHGVNFQPPLSGTLHLSRTNAFFMGGGKALVNAYYRSARQLGVEIRYETPVDSLELDDNGNFIAAHTSSGRIEARSCVLACGGFESNREWLREAWGQNERGEWPGENFLIRGTRFNQGVLLKFLMQHGADIIGDPSQGHCVAIDARAPLYDGGICTRIDCVSLGIVVNRDAVRFYDEGEDFWPKRYAIWGRLTALQPGQIAYSIIDAKAIGRFMPPVFPGIQADTLPELARKIGLDEAQFVQTVETYNAACRIGTFDHTVLDDCHTENLQPAKTHWARPIDTGPFYAFAVRPGITFTYLGLKVDETAAVRFNGRPSENLFVAGEMMAGNVLGKGYTAGVGMSIGTAFGRIAGTQAAKAALQRHQTGALHEAA”, the “soluble on expression in E. coli” value is reported as “not soluble”.
For “MKDTTRNTYLAVDFGGGSGRVIAGSLLQGKLELEEIHRFTNRQVKLGNHVYWDFPALFEDMKTGLKLAAQKGYHVKGIGIDTWGVDFGLIDKKGNLLGNPVCYRDARTDGMPDKVFQILDAQKHYACTGIQVMPINTLFQLYSMQQNQDVLLEVAQRLLFMPDLFSYYLTGVANNEYCIASTSELLDARQRNWSMDTIRALGLPEHLFGEIILPGTVRGTLKEEIGRETGLGPVDIIAVGSHDTASAVAAVPATEGQVAFLSSGTWSLLGVEVDEPILTEEARLAQFTNEGGVGGHIRFLQNITGLWILQRLMSEWKLRGEEQSYDTILPQAADAEIDTIIPVDDAEFMNPENMETALLNYCRNHSLKVPGNKAEMVKCVLQSLAFKYREAVAQLNRCLPSPIHRLNIIGGGSQNKLLNQLTANALGIPVYAGPVEATAMGNILTQAMAKGEISSLREIREVVSHSVTPQVYYPEK”, the “soluble on expression in E. coli” value was “not soluble”.
For “MGSDKIHHHHHHMSNIKVLIQASSRSWAGGRDICMGLVNGEITVARTIKRALEAFPAAQLCLVAPEFDQDGELGGVIEYVKDKRLKAFYGFDESPLKRMIAASIELADNDYIVRIDGIHFCFDVDLSQKMLALALQKKLDCIKLPADFPVHFSSEVFRVGALRELVKLLDKPELEKFNIHPKIYFELNRYNYNFEYLRTLPQYSDEYLSECRKLAKDIYDIPRLEVGSKRTIWADTPSYHYQLALEYLNSNMKVLDIACGNGYGVRMMSTFLAEVHGADLDPEIINLAKAYTHEKNVEYYIEDITNLSFEDDSYDAVTCFETLEHIPEDDCLKELRRIIRPGGMLVLSTPQNSYGHIPVNACHIVEYSLDALLKLVGRYFLVVKVIGIKAGTIHSDADPYGTNTVLVCIKPF”, the “soluble on expression in E. coli” value was “not soluble”.
For “MSLEENDFDAIYIGNSKSMIKDYRGFVFTMRELREKFPNAVLITDLEPFFYPLAVYLGIDAFDIRSLKIYSYEGLGFTQFSPIIWDEPKEDPVEYAKKIIRLIRIAIHEGKLRYLVENFLPTSMNAGILRIADRENIEYLEKYTPVDDKTVVFISDYSMTRPEVYRWAKRVRERFEPPKDIELLLILPCSAKKPYSRSRSHTLYRSAVKEALGEKMHRVHELIVTSPYGVVPREWEWIAKYDIVVTGHWSEREVRLAGELLADVLEKYPDIPIIAHVEGGYREAVKLAMELSGRDVIFTAKGNSTTSRESLANLTKTLKEFDVRDVDKEYRRYRFYENIRKIFDFYFGLNAGYAVLPERAQVVGSKMLRLIVDNQQTGTFQEGVISVTPWGMQRIYDELHSYWVEIDFDVRGDIFAAGVGSADEKIRPNDWVGVVRDGKVVAVGRAVLSGEEMVKAKRGVAVKVKKKAKEGHHHHHH”, the “soluble on expression in E. coli” value was “not soluble”.
For “MELTLHEARVIGCLLEKEVTTPEQYPLSLNALTLACNQKTSREPVLELTEAQVQDALDSLNKKRLISEQSGFGSRVVKYKHRFCNTEFSELQLSTAAVAIVCLLLLRGPQTPGELRTRSNRLHDFKDVLEVEACIKQLMERDKPVLTQLPREPGKRECRYTELFSQGSEQVSATSLSADSPSADSNSLNAQDRQQLEARVTQLEGQVAELKDKLESLIASLS”, the “soluble on expression in E. coli” value was “soluble”.
For “MQRFVFGGKLWKFNETFGCYDDYPHVAPFLAVEHFASFPVHPPTFIFSNAAVSNILSMEEIKSVLIRLDELISSNNLHNHPCLISQAGAQATMRLASKDQLRSDWNTSVEIPFCLYVTQNGVCPRQFDYEDLHKQSQWVALFEEVILPLDKMQGSKLSKIAPHQHSSVVKNAIMKSKREKKTSCKKHSKSISGIDSSSSGCNSL”, the “soluble on expression in E. coli” value was “not soluble”.
In the case of “MSEDADLKIFMDFLVEKTKDAFQPMIAVQVFREYLNEKSHLHDYHYKRFCCDLAPNMNEWNNYSIEARIRLMYALGGKVESDFLERIETHGTVELNKKRKITKYTSNDGILSLQDNRVHFTRFMDFLIQKTKYAVEPMNFNQVLEEFCRLEPDCRHYGVYYVRFHHKLAPNMDALNNYNIYDRIRLMFVLNGKVSGDFFKTIKTHGTVELDRKKKITKYVSNDGKLKLGGNIISDTRLMDFLIQKTRHSVEPMQATNLIFKEFSERPSRILDKMYQLRFYQKLAPNMNEWNRYSIEQRIRLMFVLKGKVADDFLKTIPILSMAKRIMICRIETHGTVELDEKRRIRKYTSNDGKLSLKKPLTDDTSCPTNIRFMDFLIQNTKDGAESIRLIYNEFALLEGNVLSASTYSSRFCKKLAPKMSQWSNYRIEDRIRMMFALKGKVESDFLAQMIQSGAVQLDENYRIVRYTSNNGKVELSEKRSGVKRRSSTKSSKTLGKRRQVIEKELSDLDEPEFVGIMHGYPKQEPVYEEIINQDMRYNNEDPHIPPEIEQFPIQAVHLEEPKFDPISSMNIGRGTLAQRFGTTSSESDGISVHNFLISLELILTSLESDTLIDLMREIKELRNRTNDEILPPDLVIPALQTCFMGITRKFRPEVSAPSKSAGECLRILKYSLLWLQSPLLYDLQKRVQEEIENCGADGKVIPIADIQQGIRNILFAVSI”, the “soluble on expression in E. coli” value is reported as “not soluble”.
For “MTIDMRLRPPLQSWKSTAQFKEGTAYYPTRYGFPRPKSVGTQDIGDLLAEMDEADITWGVVMGRQSAPPHGIVPNEEISDFVRQHADRFVGFAGIDLRDIDKAVADLDGYARSDEFKGISIEPGAGFVPLYSDDPSLFPLYERAQELQLPLSITLSGYLSSMAGHPTSYGNPSPVATVARKFPRLKIVVSHAAWPNVMPMLEVAFLHDNVYVSPDLYMNHVHTPGAHEYINAAKFYLADRLLFGTAYPSRPLKESVAGFRQWDLDSELAEKILHRNAARLLGLELEHHHHHH”, the “soluble on expression in E. coli” value was “not soluble”.
In the case of “MLGVVPGIGESIQAYKVAKAAKNLQGMKKALDKAATVATAQGYVSKTKIKIGQTELRVTAATDKQLLKAIGEGRTRQVK”, the “soluble on expression in E. coli” value is reported as “not soluble”.
In the case of “MNQKDTRKETLEFNKLQKRLRRNVGNAITDYNMIEEGDVVMACISGGKDSFAMLDILLNLQKAAPIKFEVVAVNLDQKQPGFPEHILPEYFETLNIPYYIVDKDTYSVVKEKVPEGKTTCGLCSRLRRGTLYSFAEKIGATKLALGHHMDDIVETMFLNMFHGSRLKAMPPKLRSDDGRNVVIRPLTYCREKDLIKYAEHKDFPIIPCNLCGSQENLQRQAIKAMLIDWDKKTPGRVEAIFKSIQNVSPSQLADRELFDFVNLPLDRDGSREEYEFSEAVVSSTNIDESLFIDVTNI”, the “soluble on expression in E. coli” value is reported as “soluble”.
In the case of “MLASAILPVVSFAESDPLDVLLKKLEEKGVITKEEAKEVKKVAKKHPHLKVKIRLQPRIDFGDIYKENNDYKSRSDFYFRRVRLEISKEWKNIPFGKKLKINFTLHSDKGERDYDYKKGEKEHHSFDPKVKYAYADWTFVDEFAVRIGKNKIPYSRVSLTSSSRQLLIERPYVTEDAKKWLGDYDSNQIMFHGKVAGGIFRYMLSIWDGSTIESKNKTGGTVKADTSLGDAYAIRLEFSPPGFVEKKKDDTGIGEKNKGDVISVGLNYAKNSDFDITDKNIKNEEATVWGGDIFGRFHLGPGALVAQAEYVKMKYDKLDLEEKGYYIQAGYLIPTPYGKFEPAARYEHFKQEDKKNDVTKHKKDIITLGFNHYIKGHKIKWGYNVLFIDNKEKDEKDQTVHQIQMQFYF”, the “soluble on expression in E. coli” value is reported as “not soluble”.
With “MGSDKIHHHHHHMPVQQLFYKTAVPVSAKRHGDLSISSGKTYAFARHTNSIPLTALEFGPAAGTHPIVFAGTGEDVVPAIIVGTREDENLAVDADGNWQGTYIPAFARRYPFIFSLDKDKNQFTLLVDEEFEGANRDGRGERLFDSEGEQTGYLKSVLKFLQDYQAGFARTQAFCKRLKELDLLVPMQAEFSLGAGQKRTLGGFQVVDREKLKALSGEVLADLCRKDELECIYLHLSSMRHFRQMLERANTEASEAEPETDAADVAEPMAET” the “soluble on expression in E. coli” value was “not soluble”.
